# Laboratory results published in patent US6677299B2, “Method to increase cerebral blood flow in amyloid angiopathy” (The Trustee of Columbia University in the city of New York, priority 2000, dated 2004).
# Target: T1, RAGE (Mus musculus, UniProt Q62151)
# T1 construct: The first set of studies employed synthetic Aβ infused in to wild-type mice; from tissue; host or cells: brain vasculature (blood-brain barrier) of living wild-type mice
# Assay: Brain perfusion model: Aβ binding to brain capillaries and transport across the BBB
# Type: in vivo, mice
# Protocol: FIGS. 1A-1F. […] FIG. 1A and bFIG.
# Brain perfusion model. […] Details of the extracorporeal perfusion circuit were as reported elsewhere. ^22,23,38,39 At the start of the perfusion, the contralateral common carotid artery was ligated, and both jugular veins severed to allow free drainage of the perfusate. Brains were perfused with oxygenated perfusion medium at a flow rate of 1 ml/min by peristalitic pump. […] Perfusion pressure and animal's own arterial blood pressure were continuously monitored. Blood gasses pO2, pCO2 and pH and electrolytes in the arterial inflow and in animal's own blood were monitored.
# Injection of radioisotopes for transport studies. […] When the effects of different unlabeled molecular reagents were tested, those were injected 5 min prior to tracers injection and than simultaneously with radiolabled ligands. At predetermined times within 10 min mice were sacrificed by decapitation, and brain tissue prepared for radioactivity analysis. TCA and HPLC analysis as we described were used to determine molecular forms of uptake of radiolabeled Aβ by the BBB.^22,23 Capillary-depletion technique was used to separate micravascular pellet from capillary-depleted brain to quantify in vivo binding to microvessels vs. transport into brain parenchyma, as we reported.^22, 23
# Mathematical modeling for transport studies. […] The rate of entry (KIN) is computed from eq. 1: d[CIN (TEST-MOLEUCLE)−CIN (ALBUMIN)]/dt=KINCPL−KOUT[CIN (TEST-MOLECULE)−CIN (ALBUMIN)], where KOUT is exit or efflux transfer coefficient, and R is the steady state or equilibrium ratio. Eq. 1 is integrated to give [CIN (TEST-MOLECULE)−CIN (ALBUMIN)]/CPL=R (1−e^−KOUT T) (eq. 2). R is the steady state ratio, and the ratio KIN/KOUT at infinite time, and T is infusion time. Numerical values for KOUT may be obtained from the slope of the plot of ln (R−[CIN (TEST-MOLECULE)−CIN (ALBUMIN)]/CPL) (eq. 3) against T, using the equation KOUT=−ln(R−[CIN (TEST-MOLECULE)−CIN (ALBUMIN)]/CPL)/T (eq. 4). Finally, the value for KIN is derived by substituting the number for KOUT in: KIN=R KOUT (eq. 5). When tracer uptake remains linear over studied period of time, the exist constant approaches zero, and KIN=d[CIN (TEST-MOLEUCLE)−CIN (ALBUMIN)]/dt CPL. […] Advanced graphics software and the MLAB mathematical modeling system (as above) will be used to obtain graphic plots and compute transfer coefficients.
# [1] = circulating 125I-labeled peptide, mice and guinea pigs
# [2] = reagent in arterial inflow, 125I-Aβ 4 nM, 10 min
# T1 sequence (Q62151 23-402): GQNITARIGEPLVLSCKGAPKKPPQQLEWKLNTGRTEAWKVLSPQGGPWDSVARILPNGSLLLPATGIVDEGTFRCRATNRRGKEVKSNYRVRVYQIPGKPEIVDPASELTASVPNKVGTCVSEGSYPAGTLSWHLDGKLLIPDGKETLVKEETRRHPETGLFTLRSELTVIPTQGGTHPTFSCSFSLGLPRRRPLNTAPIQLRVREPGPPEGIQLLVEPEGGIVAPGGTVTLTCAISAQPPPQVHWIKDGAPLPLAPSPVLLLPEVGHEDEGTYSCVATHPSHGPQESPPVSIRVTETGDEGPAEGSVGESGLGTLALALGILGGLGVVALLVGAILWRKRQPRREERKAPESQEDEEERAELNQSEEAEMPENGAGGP
effect on Aβ transport into brain (BBB transport of Aβ) [2],effect on binding of Aβ to brain microvessels [2],Substance,binding of the peptide to brain microvessels [1],transport of the peptide across the BBB [1]
–,–,"Aβ1-42: synthetic amyloid-β peptide 1-42, human form",absence of its significant binding,"somewhat slower, but significant"
did not affect,did not affect,fucoidan,–,–
